Experimental data taken from US20220396632A1 (VERSEAU THERAPEUTICS, published 2022).

T1: PSGL-1 endogenously expressed on HL-60 cells (UniProt Q14242 42-412)
T1 construct: whole, on cells
T1 sequence (looked up): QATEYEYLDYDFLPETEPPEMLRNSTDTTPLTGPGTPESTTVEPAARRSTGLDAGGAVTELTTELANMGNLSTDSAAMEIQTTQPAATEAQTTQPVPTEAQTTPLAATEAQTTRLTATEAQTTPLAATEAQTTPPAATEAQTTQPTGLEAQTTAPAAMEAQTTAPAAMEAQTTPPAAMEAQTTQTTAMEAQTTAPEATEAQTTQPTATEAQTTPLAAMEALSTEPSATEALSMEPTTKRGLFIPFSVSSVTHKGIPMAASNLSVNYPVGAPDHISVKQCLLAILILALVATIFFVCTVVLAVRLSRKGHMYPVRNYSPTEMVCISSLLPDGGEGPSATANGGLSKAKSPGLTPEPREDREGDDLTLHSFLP

T2: Biotin sY51 PSGL-1(42-62) peptide (human, sulfotyrosine at Y51; C-terminal Lys-biotin)
T2 construct: also called Y51(SO3) PSGL-1(42-62)
T2 peptide: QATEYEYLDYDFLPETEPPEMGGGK

T3: Biotin PSGL-1(42-62) peptide, unmodified (human, C-terminal Lys-biotin)
T3 construct: Residues 42-62 followed by GGGK-biotin; also called WT; wild-type
T3 peptide: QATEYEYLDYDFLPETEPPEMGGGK

T4: Scrambled Y46,48,51(SO3) PSGL-1(42-62) biotin peptide (sulfotyrosine at peptide positions 5, 7 and 10; C-terminal Lys-biotin)
T4 construct: also called scrambled sulfated peptide: biotin
T4 peptide: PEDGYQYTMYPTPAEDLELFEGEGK

T5: Recombinant human PSGL-1(ECD)-hFc1 (R&D Systems, Cat. 3345-PS) (human, UniProt Q14242 42-305)
T5 construct: Bought; Gln42-Val295 counted on AAC50061; also called PSGL-1-Fc; PSGL-1-hFc1 chimera; not shown: human IgG1 Fc, Pro100-Lys330
T5 sequence: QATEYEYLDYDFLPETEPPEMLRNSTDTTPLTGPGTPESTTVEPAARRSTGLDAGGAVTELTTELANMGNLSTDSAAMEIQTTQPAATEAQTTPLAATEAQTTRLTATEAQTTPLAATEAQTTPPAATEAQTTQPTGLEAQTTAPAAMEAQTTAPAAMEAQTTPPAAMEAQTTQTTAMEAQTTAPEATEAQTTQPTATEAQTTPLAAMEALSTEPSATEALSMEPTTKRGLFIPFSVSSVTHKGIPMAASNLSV

T6: Cynomolgus PSGL-1(ECD)-HIS (cynomolgus macaque)
T6 construct: also called Cyno PSGL1-His
T6 chain: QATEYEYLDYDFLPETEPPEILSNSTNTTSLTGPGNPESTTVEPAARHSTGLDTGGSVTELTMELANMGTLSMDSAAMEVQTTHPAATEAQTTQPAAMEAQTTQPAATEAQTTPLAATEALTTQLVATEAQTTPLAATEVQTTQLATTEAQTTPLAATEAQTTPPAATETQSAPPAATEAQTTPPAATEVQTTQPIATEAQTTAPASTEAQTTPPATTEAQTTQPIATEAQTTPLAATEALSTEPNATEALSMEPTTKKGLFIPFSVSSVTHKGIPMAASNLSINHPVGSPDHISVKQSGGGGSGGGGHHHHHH


Assays:
[1] = target: T1, PSGL-1 endogenously expressed on HL-60 …; experiment: flow cytometry on HL-60 cells
Experimental: (§1) A typical flow cytometry assay was performed by resuspending HL-60 cells in FACS buffer (5% FBS and 0.05% Sodium Azide in PBS, pH 7.2) on ice, pelleting cells by centrifugation at 500×g for 3 min, washing cells with FACS buffer, and then blocking Fc receptors on the cells with Fc block (human TruStain FcX™, BioLegend Cat. #422302) on ice for 10 min. After washing, 50,000 cells/50 ul in FACS buffer was added to each well of a 96-well round bottomed plate (Costar, Cat. #3797), and 50 ul of serially diluted (0.06 nM-1.0 uM) test or isotype control antibody was added into duplicate wells. The plate was covered and incubated on ice for 1 h. After washing, Phycoerythrin (PE) conjugated anti-human IgG secondary antibody (Abcam; Cat. #ab99825) was added to each well and the plate incubated in the dark on ice for 30 min. After washing, the cells were fixed (1% paraformaldhyde).

[2] = target: T1, PSGL-1 endogenously expressed on HL-60 …; experiment: flow cytometry on HL-60 cells; against parent 19L04
Experimental: as §1

[3] = target: T2, Biotin sY51 PSGL-1(42-62) peptide; experiment: ELISA, immobilized biotin peptide
Outline: (§2)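 In this ELISA, half-well high binding plates (Corning Cat. #3690) received 3 ug/mL/25 ul per well of biotin-tagged PSGL-1 peptides covering residues 42 to 62, diluted in PBS, pH 7.4, and coated overnight at 4° C. Duplicate readings for each antibody were averaged and the average assay background was subtracted. PSGL-1 protein or peptide was the positive control.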

[4] = target: T3, Biotin PSGL-1(42-62) peptide, unmodified; experiment: ELISA, immobilized biotin peptide
Outline: as §2

[5] = target: T4, Scrambled Y46,48,51(SO3) PSGL-1(42-62) …; experiment: ELISA, immobilized biotin peptide
Outline: as §2

[6] = target: T5, Recombinant human PSGL-1(ECD)-hFc1 (R&D …); experiment: blocking ELISA vs VISTA-Fc, pH 6.0
[7] = target: T5, Recombinant human PSGL-1(ECD)-hFc1 (R&D …); experiment: blocking ELISA vs L-selectin-Fc
Experimental: (§3) A typical selectin blocking ELISA assay involved coating high binding half-well plates (Corning, Cat. #3690) with 2.5 ug/mL/25 ul per well of recombinant PSGL-1-Fc protein (R&D Systems, Cat #3345-PS) in PBS, pH 7.4, overnight at 4° C. […] Antibody (test and controls) was serially diluted (25 ul/well) in duplicate in assay buffer (3% BSA in wash buffer) into appropriate wells and the plate incubated for 45 min at 37° C. […] The plate was washed ×3 and HRP-conjugated streptavidin was added in assay buffer [25 ul per well; (Jackson Immunoresearch, Cat. #016-030-084)] and the plate incubated for 45 min at 37° C. […] For each antibody, an IC50 value was determined from sigmoidal fitted titration curves.

[8] = target: T5, Recombinant human PSGL-1(ECD)-hFc1 (R&D …); experiment: blocking ELISA vs P-selectin-Fc
Experimental: as §3

[9] = target: T6, Cynomolgus PSGL-1(ECD)-HIS; experiment: ELISA, plate cyno PSGL-1(ECD)-HIS
Experimental: Antibody binding to plate-immobilized cyno PSGL-1(ECD) was determined either at one concentration (20 nM) or by generating full antibody binding curves (0.003-200 nM). A typical ELISA was performed by overnight coating at 4° C. with 3 ug/mL/25 ul per well of recombinant cyno PSGL-1(ECD) protein in PBS, pH 7.4, in high binding half-well plates (Corning Cat. #3690). […] Anti-PSGL-1 IgG in assay buffer (blocking buffer containing 0.05% tween 20) was added into test and control wells (20 nM/25 ul/well) and the plate incubated for 45 min at 37° C. […] The plate was incubated for 45 min at 37° C., and mAb bound to plate-immobilized target determined at A450 nm using HRP substrate (3,3′,5,5′-tetramethylbenzidine (TMB)). For each antibody, duplicate values were averaged and assay background subtracted.

[10] = target: T1, PSGL-1 endogenously expressed on HL-60 …; experiment: flow cytometry on HL-60 cells; against parent 20I15
Experimental: as §1

Binder	EC50 [1]	HL-60 EC50 (normalized) [10]	also measured
19L04.002 (antibody, IgG4, V domains shown, Humanised) VH: QIQLVQSGSELKKPGASVKVSCKASGYTFTTYGMSWVRQAPGQGLKWMGWINTYSGVPTYADDFKGRFVFSLDTSVSTAYLQISSLKAEDTAVYFCARHYYGSHYFDYWGQGTLVTVSS VL: DIVMTQSPDSLAVSLGERATIRCKSSQSLLSSSNQKNYLAWYQQKPGQPPKLLVYFASTRESGVPDRFSGSGSGTDFTLTISSLQAEDVAVYYCQQHYFSPLTFGQGTKLEIK	2.5 nM		HL-60 EC50 (normalized) [2]: 1.3 fold
18L13 (antibody, V domains shown, Mouse hybridoma mAb; only variable domains given) VH: EVQLQQSGAELVRPGASVKLSCTASGFNIKDDFMHWVKQRPEQGLEWIGRIDPASGKTEYVPKFQDKATLTADTSSNTAYLQLSSLTSEDTAVYYCARRIAYWGQGTLVTVSA VL: DVVMTQTPLTLSVTIGQPASISCKSSQSLLHSNGKTYLNWLLQRPGQSPKLLIYLVSKLESGLPDRFSGSGSGTDFSLKISRVEAEDLGVYYCLQTTHFPQTFGGGTKLEIK			EC50 [3]: 0.914 nM; EC50 [4]: 0.764 nM; EC50 [5]: 2.63 nM; % max Block [6]: 0%; % max Block [7]: 0%; % max Block [8]: 0%; EC50 [9]: 0.76 nM
20I15.001 (antibody, IgG4, V domains shown, Humanised; also called 20115.001) VH: EVQLVESGGGLVQPGGSLRLSCAASGFTFTDYYMSWVRQAPGKGLEWLGFIRNKANGYTTEYSASVKGRFTISRDNSKNSLYLQMNSLKTEDTAVYYCARTYLRRGYFDVWGQGTLVTVSS VL: DIQLTQSPSTLSASVGDRVTITCRASKSVSTSGYSYMHWFQQKPGKAPKLLIYLASNLESGVPSRFSGSGSGTEFTLTISSLQPDDFATYYCQHSRELPLTFGQGTKLEIK	0.5 nM	0.4 fold	
20I15.008 (antibody, IgG4, V domains shown, Humanised) VH: EVKLVESGGGLVQPGGSLRLSCAASGFTFTDYYMSWVRQAPGKGLEWLGFIRNKAQGYTTEYSASVKGRFTISRDNSQNSLYLQMNSLKTEDTAVYYCARTYLRRGYFDVWGQGTLVTVSS VL: DIVLTQSPSTLSASVGDRVTITCRASKSVSTSGYSYMHWFQQKPGKAPKLLIYLASNLESGVPSRFSGSGSGTDFTLTISSLQPDDFATYYCQHSRELPLTFGQGTKLEIK	1.6 nM	1.1 fold	
20I15.003 (antibody, IgG4, V domains shown, Humanised) VH: EVKLVESGGGLVQPGGSLRLSCAASGFTFTDYYMSWVRQAPGKGLEWLGFIRNKANGYTTEYSASVKGRFTISRDNSQNSLYLQMNSLKTEDTAVYYCARTYLRRGYFDVWGQGTLVTVSS VL: DIQLTQSPSTLSASVGDRVTITCRASKSVSTSGYSYMHWFQQKPGKAPKLLIYLASNLESGVPSRFSGSGSGTEFTLTISSLQPDDFATYYCQHSRELPLTFGQGTKLEIK	1.6 nM	1.1 fold	
20I15.004 (antibody, IgG4, V domains shown, Humanised) VH: EVKLVESGGGLVQPGGSLRLSCAASGFTFTDYYMSWVRQAPGKGLEWLGFIRNKAQGYTTEYSASVKGRFTISRDNSQNSLYLQMNSLKTEDTAVYYCARTYLRRGYFDVWGQGTLVTVSS VL: DIQLTQSPSTLSASVGDRVTITCRASKSVSTSGYSYMHWFQQKPGKAPKLLIYLASNLESGVPSRFSGSGSGTEFTLTISSLQPDDFATYYCQHSRELPLTFGQGTKLEIK	1 nM	0.7 fold	
20I15.002 (antibody, IgG4, V domains shown, Humanised) VH: EVQLVESGGGLVQPGGSLRLSCAASGFTFTDYYMSWVRQAPGKGLEWLGFIRNKASGYTTEYSASVKGRFTISRDNSKNSLYLQMNSLKTEDTAVYYCARTYLRRGYFDVWGQGTLVTVSS VL: DIQLTQSPSTLSASVGDRVTITCRASKSVSTSGYSYMHWFQQKPGKAPKLLIYLASNLESGVPSRFSGSGSGTEFTLTISSLQPDDFATYYCQHSRELPLTFGQGTKLEIK	1 nM	0.7 fold	
20I15.007 (antibody, IgG4, V domains shown, Humanised) VH: EVKLVESGGGLVQPGGSLRLSCAASGFTFTDYYMSWVRQAPGKGLEWLGFIRNKANGYTTEYSASVKGRFTISRDNSQNSLYLQMNSLKTEDTAVYYCARTYLRRGYFDVWGQGTLVTVSS VL: DIVLTQSPSTLSASVGDRVTITCRASKSVSTSGYSYMHWFQQKPGKAPKLLIYLASNLESGVPSRFSGSGSGTDFTLTISSLQPDDFATYYCQHSRELPLTFGQGTKLEIK	0.8 nM	0.6 fold	
20I15.006 (antibody, IgG4, V domains shown, Humanised) VH: EVQLVESGGGLVQPGGSLRLSCAASGFTFTDYYMSWVRQAPGKGLEWLGFIRNKASGYTTEYSASVKGRFTISRDNSKNSLYLQMNSLKTEDTAVYYCARTYLRRGYFDVWGQGTLVTVSS VL: DIVLTQSPSTLSASVGDRVTITCRASKSVSTSGYSYMHWFQQKPGKAPKLLIYLASNLESGVPSRFSGSGSGTDFTLTISSLQPDDFATYYCQHSRELPLTFGQGTKLEIK	0.8 nM	0.6 fold	
20I15.005 (antibody, IgG4, V domains shown, Humanised) VH: EVQLVESGGGLVQPGGSLRLSCAASGFTFTDYYMSWVRQAPGKGLEWLGFIRNKANGYTTEYSASVKGRFTISRDNSKNSLYLQMNSLKTEDTAVYYCARTYLRRGYFDVWGQGTLVTVSS VL: DIVLTQSPSTLSASVGDRVTITCRASKSVSTSGYSYMHWFQQKPGKAPKLLIYLASNLESGVPSRFSGSGSGTDFTLTISSLQPDDFATYYCQHSRELPLTFGQGTKLEIK	1.3 nM	0.9 fold	
